PMC2443190, “Novel Intermolecular Iterative Mechanism for Biosynthesis of Mycoketide Catalyzed by a Bimodular Polyketide Synthase” (PLoS Biology, 2008)

Molecular target: PKS12Δ1 E20S mutant protein (M. tuberculosis H37Rv) (UniProt I6XD69)

## PKS12Δ1 E20S mutant protein (from UniProt I6XD69 1-4151) (enzyme)
  catalytic turnover (fold decrease): 5
  product formation by quantitative radio-HPLC (fold decrease): > 5
